Data from article PMC5321536 (Angewandte Chemie (International ed. in English), 2017).

Target: the molecule itself
Test: solution-state diffusion-ordered NMR spectroscopy

B1: isolated cytoplasmic (soluble) C-terminal domain of CzcD (CzcD_(209-316)) (domain or fragment, Cupriavidus metallidurans CH34, UniProt P13512 209-316, looked up)
chain: EGVPDDVDLAEVEKQILATPGVKSFHDLHIWALTSGKASLTVHVVNDTAVNPEMEVLPELKQMLADKFDITHVTIQFELAPCEQADAAQHFNASPALVGSKSLAAGGN
stoichiometry N: 2
